Experiment [1] addresses T1, human VEGFA (human, UniProt P15692-4 27-191, limits assumed, biotinylated (sites not given) in the ELISA assays). Nature of the experiment: cell-based or functional assay.
Experiment [2] has as its target T2, human VEGFB (human, UniProt P49765-2 22-188, limits assumed, biotinylated (sites not given)).
T2 construct: also called Biotin-HVEGFB
T2 sequence (looked up): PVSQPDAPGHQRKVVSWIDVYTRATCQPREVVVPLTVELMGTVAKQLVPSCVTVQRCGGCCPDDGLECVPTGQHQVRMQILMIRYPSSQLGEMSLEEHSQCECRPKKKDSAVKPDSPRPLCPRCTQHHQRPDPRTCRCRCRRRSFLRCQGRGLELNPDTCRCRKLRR
The experiment is described as follows: ELISA, antibody coated, biotinylated ligand, SA-HRP. Here is the method: (§1) ELISA was used to verify whether the candidate antibodies could cross-react with VEGF homologous proteins. (1) 1 ug/mL antibody to be measured was added to the ELISA plate and coated overnight at 4° C. […] (4) After washing with PBST for 5 times, 100 uL diluted SA-HRP (1:5000 diluted) was added at 37° C. and incubated for 1 hour; (5) After washing with PBST for 5 times, TMB solution (100 uL) was added and developed at 37° C. for 10 min, add 2M H₂SO₄ (50 uL/well) was added to terminate the reaction, and the absorption value at 450 nm wavelength was measured with a microplate reader.
A general note: ELISA stands for enzyme-linked immunosorbent assay.

Experiment [3] has as its target T3, human VEGFC (human, UniProt P49767 112-227, limits assumed, biotinylated (sites not given)).
T3 construct: also called Biotin-HVEGFC
T3 sequence (looked up): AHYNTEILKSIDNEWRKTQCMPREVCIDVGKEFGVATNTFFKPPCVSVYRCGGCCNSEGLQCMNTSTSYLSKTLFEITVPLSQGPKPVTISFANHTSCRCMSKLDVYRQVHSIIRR
The description is as above. On the procedure:
as §1

The target in experiment [4] is T4, human VEGFD (human, UniProt O43915 89-205, limits assumed, biotinylated (sites not given)).
T4 construct: also called Biotin-HVEGFD
T4 sequence (looked up): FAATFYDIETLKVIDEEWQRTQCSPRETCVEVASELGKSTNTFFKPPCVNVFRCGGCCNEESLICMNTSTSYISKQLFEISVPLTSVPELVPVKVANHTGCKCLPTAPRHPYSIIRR
Described as above. Here is the method:
as §1

The target of experiment [5] is T1, human VEGFA. The experiment is described as follows: blocking ELISA: VEGFR2 coated, biotinylated VEGFA with antibody dilutions (FIG. 5). Here is the method: (§2) (4) After washing with PBST for 5 times, 100 uL SA-HRP (1:100000 dilution) was added and incubated at 37° C. for 1 hour. (5) After washing with PBST for 5 times, TMB chromochrome solution 100 uL was added, and developed at 37° C. for 10 min, 2M H₂SO₄ (50 uL/well) was added to terminate the reaction, and the absorption value was measured at 450 nm wavelength with a microplate reader.

The target of experiment [6] is T1, human VEGFA. The experiment is described as follows: blocking ELISA: VEGFR2 coated, biotinylated VEGFA with antibody dilutions (FIG. 6). Here is the method:
as §2

Experiment [7] concerns the target T1, human VEGFA. Nature of the experiment: blocking ELISA: VEGFR1 coated, biotinylated VEGFA with antibody dilutions (FIG. 10). On the procedure:
(1) VEGFR1 protein was coated on an enzyme plate (1 ug/mL, 100 uL/well) and incubated at 4° C. overnight. […] (4) After washing with PBST for 5 times, 100 uL SA-HRP (1:100000 dilution) was added and incubated at 37° C. for 1 hour. (5) After washing with PBST for 5 times, TMB solution (100 uL) was added and developed at 37° C. for 10 min, 2M H₂SO₄ (50 uL/well) was added to terminate the reaction, and the absorption value at 450 nm wavelength was measured with a microplate reader.

Experiment [8] addresses T1, human VEGFA. Nature of the experiment: blocking ELISA: VEGFR2 coated, biotinylated VEGFA with antibody dilutions (FIG. 5); reference huNb24. On the procedure:
as §2

The target in experiment [9] is T1, human VEGFA. The experiment is described as follows: blocking ELISA: VEGFR2 coated, biotinylated VEGFA with antibody dilutions (FIG. 1). On the procedure:
as §2

Experiment [10] concerns the target T1, human VEGFA. The experiment is described as follows: blocking ELISA: VEGFR2 coated, biotinylated VEGFA with antibody dilutions (FIG. 4). On the procedure: as §2

Positions count from the first letter of the chain named.

T1 sequence (P15692 other isoform, or with tags, fused parts or gaps limits assumed): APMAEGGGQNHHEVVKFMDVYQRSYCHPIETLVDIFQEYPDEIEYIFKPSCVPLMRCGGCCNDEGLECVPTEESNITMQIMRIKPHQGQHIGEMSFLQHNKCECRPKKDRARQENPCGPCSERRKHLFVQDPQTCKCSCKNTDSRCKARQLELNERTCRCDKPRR

B1: hu bi-Nb24(Y) (VHH)
chain: EVQLQESGGGLVQPGGSLRLSCTASGFTFDDPDVGWFRQAPGNECELVSTISKDGSTYYTDSVKGRFTISRDYAKNTVYLQMNSLRAEDTAVYYCAADSNPIAPIRTCLGWYNYWGQGTLVTVSSGGGGSGGGSEVQLQESGGGLVQPGGSLRLSCTASGFTFDDPDVGWFRQAPGNECELVSTISKDGSTYYTDSVKGRFTISRDYAKNTVYLQMNSLRAEDTAVYYCAADSNPIAPIRTCLGWYNYWGQGTLVTVSS
notes: Bivalent tandem VHH, one chain, expressed in Pichia pastoris, no Fc; also called humanized bivalent antibody expressed by the yeast; huNb24 bivalent
Turning to B1, in experiment [1], the “inhibitory effect on HUVEC cell proliferation, IC50” value is 0.0536 µg/mL. Further, the binding result in experiment [2], in experiment [3] and in experiment [4] was “no binding (tested: 1 ug/mL)” throughout. The concentration for half-maximal inhibition (IC50) (commonly the concentration that inhibits the measured activity by half) in experiment [5] turned out to be 0.013 µg/mL; in experiment [6], 0.022 µg/mL; in [7], 0.168 µg/mL. Also, the “fold increase of blocking activity against huNb24” value in experiment [8] is above 3 times.

B2: Nb24 (Fc fusion)
chain: QVQLQESGGGSVQAGGSLRLSCTASGFTFDDPDVGWFRQAPGNECELVSTISKDGSTYYTDSVKGRFTISQDYAKNTVYLQMNSLKPEDTAVYYCAADSNPIAPIRTCLGWYNYWGQGTQVTVSS
notes: also called candidate antibody Nb24; antibody before humanization; not shown: Fc
As for B2, in [1], the “inhibitory effect on HUVEC cell proliferation (CCK8, OD450), IC50” value was determined as 0.0296 µg/mL. Further, the IC50 in experiment [9] was 0.0149 µg/mL; in experiment [10], 0.045 µg/mL.

B3: huNb24 (Fc fusion)
chain: B2 chain with Q1E, S11L, A14P, Q71R, K86R, P87A, Q120L
notes: also called humanized antibody huNb24; antibody after humanization; not shown: Fc from the pFUSE vector
Consider B3, for which the IC50 in experiment [10] worked out at 0.038 µg/mL; in experiment [5], 0.044 µg/mL.

Values taken from patent publication US20220324954A1 (SHANGHAI NOVAMAB BIOPHARMACEUTICALS, published 2022).
